Here are results for five molecules from patent US20250333441A1, “POLYPEPTIDE INHIBITORS AND USES THEREOF” (Neuracle Science Co., Ltd., priority 2021, published 2025).

Test [1] concerns mouse primary cortical neurons. As to the kind of experiment: Neurite growth of primary cortical neurons (beta-tubulin III immunostaining). It counts as cell-based. Conditions: FB peptides; treated for two days, assessed at day 3. As for the experimental part: Next, primary cortical neurons (day 1 postnatal) were cultured in vitro with varying concentrations (0.006 to 60 nM) of the LRRC4B (453-576) protein fragment (i.e., amino acid residues 453-576 of SEQ ID NO: 2; SEQ ID NO: 7), and then at day 3 post-initial culture, the effect on neurite growth was assessed by immunostaining the cells with anti-beta-tubulin III antibody. Cells cultured with DMSO (“Veh”) were used as control.
Mouse hippocampal neurons were treated with LRRC4B peptides at 1 and 2 DIV to determine neurite growth. It was measured by using 3 different parameters, which are total neurites length, number of primary and secondary neurites. After the neurons were stained with beta-tubulin III at 3 DIV, neurites length and branch points were measured using Fiji (Image J, NIH, Bethesda). Individual neurons were selected by hand and these parameters were counted using the Simple neurite tracer plugin. Mouse spinal motor neurons sampled at postnatal day 1 were treated with 10 nM of NS101 and LRRC4B-peptides (dFB-dWY-JM31 and dFB-DY-JM31) at 1 and 2 DIV and immunostained with Tau-5 antibody at 3 DIV. Total neurite length and number of somas in images were measured by Neurphology Image J plugin.

The target in test [2] is T1, FAM19A5 protein (Homo sapiens, UniProt Q7Z5A7). As to the kind of experiment: ELISA binding of recombinant FAM19A5 to coated LRRC4 family ectodomains, fragments and FB peptides. Conditions: coated protein or peptide, FAM19A5 up to 10 nM. As for the experimental part: Next, to confirm the above co-immunoprecipitation results, an ELISA assay was used to measure the binding of the FAM19A5 protein to either the full-length ectodomain of members of LRRC4 protein family or various LRRC4B ectodomain protein fragments. Specifically, an ELISA plate was coated with one of the following LRRC4B ectodomain protein, which was conjugated to human Fc (100 nM/well): (1) full-length ectodomain of LRRC4 protein (amino acid residues 39-527 of SEQ ID NO: 1) (SEQ ID NO: 4); (2) full-length ectodomain of LRRC4B protein (amino acids 36-576 of SEQ ID NO: 2; i.e., construct #7 in Table 6) (SEQ ID NO: 5); (3) full-length ectodomain of LRRC4C protein (amino acids 45-527 of SEQ ID NO: 3) (SEQ ID NO: 6); (4) LRRC4B ectodomain fragment (amino acids 453-576 of SEQ ID NO: 2; i.e., construct #11 in Table 6) (SEQ ID NO: 7); (5) LRRC4B ectodomain fragment (amino acids 484-576 of SEQ ID NO: 2; i.e., construct #12 in Table 6) (SEQ ID NO: 8); (6) LRRC4B ectodomain fragment (amino acids 482-576 of SEQ ID NO: 2) (SEQ ID NO: 9); (7) LRRC4B ectodomain fragment (amino acids 482-497 of SEQ ID NO: 2) (SEQ ID NO: 10); and (8) LRRC4B ectodomain fragment (amino acids 498-576 of SEQ ID NO: 2; i.e., construct #13 in Table 6) (SEQ ID NO: 11). Then, recombinant FAM19A5 proteins (0.005, 0.01, 0.025, 0.05, 0.1, 0.25, 0.5, 1, 2.5, 5, and 10 nM) were added to the relevant wells, and the plates were incubated at 37° C. for 1 hour. Afterwards, the amount of LRRC4B-bound FAM19A5 protein was detected using […] anti-FAM19A5 (1-65) antibody.
As further confirmation, three synthetic polypeptides comprising amino acids 484-497 of SEQ ID NO: 2 (i.e., YTYFTTVTVETLET; SEQ ID NO: 65) were constructed: (1) FB-16 (GYTYFTTVTVETLETQ; SEQ ID NO: 17), (2) FB-20 ([…]; SEQ ID NO: 18), and (3) FB-28 ([…]; SEQ ID NO: 19). The peptides differed in their total length. The ability of these polypeptides to bind to recombinant FAM19A5 protein was assessed using an ELISA assay as described above.
Background: ELISA stands for enzyme-linked immunosorbent assay.

The target in test [3] is binding of FAM19A5 protein to full-length ectodomain of LRRC4C protein (Homo sapiens, UniProt Q7Z5A7). As to the kind of experiment: Competitive inhibition assay, plate coated with full-length LRRC4C ectodomain. Conditions: 100 nM/well coated full-length LRRC4C ectodomain; FAM19A5 5 ng/mL. How it is done: (§1) As described in Example 3, there appeared to be much similarity in the binding domains of the different members of the LRRC4 family. […] Then, recombinant FAM19A5 protein (5 ng/mL) was added in combination with one of the following: (i) LRRC4B (484-576) protein fragment, (ii) LRRC4B (453-576, AA) protein fragment, and (iii) synthetic FB-20 peptide. The plates were incubated at 37° C., and then, the amount of FAM19A5 protein bound to the coated LRRC4, LRRC4B, or LRRC4C proteins was measured using anti-FAM19A5 (1-65) antibody.

Test [4] deals with binding of FAM19A5 protein to full-length ectodomain of LRRC4 protein (Homo sapiens, UniProt Q7Z5A7). Briefly: Competitive inhibition assay, plate coated with full-length LRRC4 ectodomain. Conditions: 100 nM/well coated full-length LRRC4 ectodomain; FAM19A5 5 ng/mL. As for the experimental part: as §1
The target in test [5] is binding of FAM19A5 protein to full-length ectodomain of the LRRC4B protein (amino acids 36-576)-hFc (Homo sapiens, UniProt Q7Z5A7). As to the kind of experiment: Competitive inhibition assay, plate coated with full-length LRRC4B ectodomain. Conditions: 100 nM coated ectodomain; FAM19A5 5 ng/mL; increasing concentrations. As for the experimental part: Next, to further assess the role that the binding domain of the LRRC4B protein has on the interaction between FAM19A5 protein and members of the LRRC4 protein family, a competitive inhibition assay was used to determine whether different LRRC4B deletion constructs from Example 2 could inhibit the binding of FAM19A5 to the full-length ectodomain of the LRRC4B protein (i.e., amino acids 36-576 of SEQ ID NO: 2; SEQ ID NO: 5). Briefly, 100 nM of the full-length ectodomain of the LRRC4B protein was used to coat a plate, and then recombinant FAM19A5 protein (5 ng/mL) was added to the plate in combination with the following LRRC4B deletion constructs (increasing concentrations): (1) LRRC4B (453-576) (i.e., construct #11 in Table 6); (2) LRRC4B (453-576) mutant (comprises alanine substitutions at positions 488 and 489 of SEQ ID NO: 2; SEQ ID NO: 16); (3) LRRC4B (484-576) (i.e., construct #12 in Table 6); (4) LRRC4B (482-576); (5) LRRC4B (482-497); and (6) LRRC4B (498-576). The plates were incubated at 37° C., and then, the amount of FAM19A5 bound to the coated LRRC4B ectodomain protein was measured using H1RP-conjugated anti-FAM19A5 (1-65) antibody. […]

Test [6] addresses T1, FAM19A5 protein. As to the kind of experiment: Co-immunoprecipitation of FLAG-tagged LRRC4 family constructs with recombinant FAM19A5 in HEK293 cells. Conditions: HEK293 cells expressing FLAG-tagged construct, recombinant FAM19A5 protein (1 μM) 30 minutes; anti-FLAG immunoprecipitation. It counts as binding. As for the experimental part: To better understand the interaction between FAM19A5 and members of the LRRC4 protein family, HEK293 cells were modified to express a FLAG-tagged member of the LRRC4 protein family, i.e., LRRC4C protein, LRRC4 protein, or LRRC4B protein. Then, the HEK293 cells or primary cortical neurons were treated with recombinant FAM19A5 protein (1 μM) for 30 minutes, and the binding between FAM19A5 protein and the different members of the LRRC4 protein family was assessed using both co-immunoprecipitation and immunofluorescence assays.
For the co-immunoprecipitation assay, cell lysates from the different FAM19A5-treated HEK293 cells were collected and immunoprecipitated with an anti-FLAG antibody, anti-FAM19A5 (1-65) antibody, or a human IgG antibody (control). Immunoprecipitated proteins were immunoblotted with anti-FLAG and anti-FAM19A5 (3-2) antibodies. For the immunofluorescence assay, the HEK293 cells treated with the recombinant FAM19A5 protein were immunostained with anti-FAM19A5 (3-2) (to detect FAM19A5 protein expression) and anti-FLAG antibodies (to detect member of the LRRC4 protein family). The primary cortical neurons treated with the recombinant FAM19A5 protein were immunostained with anti-FAM19A5 (3-2) and anti-LRRC4B antibodies. The nuclei were stained with Hoechst33342 (blue).
To determine the specific motif or domain of the LRRC4B protein that is responsible for the binding to a FAM19A5 protein, various FLAG-tagged LRRC4B deletion constructs were generated (see Table 6 below). HEK293 cells were transfected with the different deletion constructs and then treated with recombinant FAM19A5 protein as described in Example 1. Then, the cell lysates from the different HEK293 cells were immunoprecipitated with the anti-FLAG antibody. The immunoprecipitated proteins were immunoblotted with anti-FLAG and anti-FAM19A5 (3-2) antibodies.
As described in Example 2, all members of the LRRC4 protein family were capable of binding to FAM19A5 protein to varying degrees. Therefore, to compare the bindings domains, the amino acid sequences of the LRRC4B, LRRC4, and LRRC4C proteins were aligned. […] Therefore, to assess whether the corresponding positions of LRRC4 and LRRC4C were important in the binding of these proteins to FAM19A5 protein, cDNAs encoding either (i) LRRC4C protein fragment (amino acids 354-527 of SEQ ID NO: 3; SEQ ID NO: 66) or (ii) LRRC4 protein fragment (amino acids 353-527 of SEQ ID NO: 1; SEQ ID NO: 67) were constructed (see Table 7). HEK293 cells were transfected to express either of the protein fragments and then treated with recombinant FAM19A5 protein as described in Example 1. Then, the cell lysates from the different HEK293 cells were immunoprecipitated with the anti-FLAG antibody. The immunoprecipitated proteins were immunoblotted with anti-FLAG and anti-FAM19A5 (3-2) antibodies.

Test [7] deals with T2, FAM19A5 (isoform 2) - full-length LRRC4B protein complex (Homo sapiens, UniProt Q7Z5A7).
T2 construct: expressed in transfected cells; host or cells: HEK293
Briefly: Immunofluorescence: dissociation of FAM19A5 from full-length LRRC4B in HEK293 cells. It counts as cell-based. Conditions: HEK293 cells expressing FAM19A5 isoform 2 and LRRC4B, treated 30 minutes. As for the experimental part: Since LRRC4B protein fragments containing the binding domain described in Example 2 (e.g., LRRC4B (453-576); i.e., construct #11 in Table 6) was able to bind to FAM19A5 protein with high affinity, it was next assessed whether such protein fragments could compete with naturally existing LRRC4B protein for binding to FAM19A5 protein, and thereby, dissociate the FAM19A5-LRRC4 protein family complex. Briefly, HEK293 cells expressing both FAM19A5 isoform 2 and LRRC4B protein were treated (i.e., cultured in vitro) for 30 minutes with either LRRC4B (453-576)-hFc or mutant LRRC4B (453-576)-hFc (includes alanine substitutions at positions 488 and 489 of SEQ ID NO: 2; SEQ ID NO: 16) protein fragments. Then, the cells were immunostained with anti-FAM19A5 (1-65) and anti-LRRC4B antibodies to determine the expression of FAM19A5 and full-length LRRC4B proteins, respectively. The hFc-fused LRRC4B protein fragments were determined using an anti-hIgG antibody. The nuclei were stained with Hoechst 33342.

T1 sequence (Q7Z5A7 44-132): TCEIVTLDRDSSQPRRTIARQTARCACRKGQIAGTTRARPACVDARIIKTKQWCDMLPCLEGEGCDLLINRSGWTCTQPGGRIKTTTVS
Sequence of binding of FAM19A5 protein to full-length ectodomain of LRRC4 protein (Q7Z5A7 44-132): as above
Sequence of binding of FAM19A5 protein to full-length ectodomain of LRRC4C protein (Q7Z5A7 44-132): as above
Sequence of binding of FAM19A5 protein to full-length ectodomain of the LRRC4B protein (amino acids 36-576)-hFc (Q7Z5A7 44-132): as above
T2 sequence (Q7Z5A7 1-125 isoform Q7Z5A7-2, one chain of several): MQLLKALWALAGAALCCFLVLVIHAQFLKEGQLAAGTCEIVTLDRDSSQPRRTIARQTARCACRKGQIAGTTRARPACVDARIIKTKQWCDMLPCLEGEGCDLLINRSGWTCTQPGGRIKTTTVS

With GYTYFTTVTVETLETQ [FB-16], the neurite outgrowth result in test [1] is given as “Increased neurite outgrowth”. Further, in test [2], the “binding to FAM19A5 protein (ELISA)” value is “high affinity”.

For the molecule GYTYFTTVTVETLETQPGEE [FB-20], in test [3], the “inhibition of FAM19A5 binding to coated LRRC4C protein” value (“inhibition … to coated LRRC4C protein” below) is “able to inhibit FAM19A5 protein from binding”. Further, the neurite outgrowth result in test [1] was “Increased neurite outgrowth”. In test [2], the “binding to FAM19A5 protein (ELISA)” value is “high affinity”. For the same molecule, in test [4], the “inhibition of FAM19A5 binding to coated LRRC4 protein” value (shortened to “inhibition … to coated LRRC4 protein”) was “able to inhibit FAM19A5 protein from binding”.

In the case of GYTYFTTVTVETLETQPGEKEPPGPTTD [FB-28], the neurite outgrowth entry in test [1] is “Increased neurite outgrowth”. The “binding to FAM19A5 protein (ELISA)” value in test [2] is on record as “high affinity”.

B1: LRRC4B (484-576): LRRC4B fragment, amino acids 484-576 of SEQ ID NO: 2 (SEQ ID NO: 8) (protein)
chain: YTYFTTVTVETLETQPGEEALQPRGTEKEPPGPTTDGVWGGGRPGDAAGPASSSTTAPAPRSSRPTEKAFTVPITDVTENALKDLDDVMKTTK
Consider B1, for which the “inhibition of FAM19A5 binding to coated full-length LRRC4B ectodomain protein” value in test [5] is recorded as “able to inhibit the interaction”. The “inhibition … to coated LRRC4C protein” value in test [3] is “able to inhibit FAM19A5 protein from binding”. Also, in test [6], the “binding to FAM19A5 protein (co-immunoprecipitation)” value was “able to bind to the FAM19A5 protein”. The “inhibition … to coated LRRC4 protein” value in test [4] is “able to inhibit FAM19A5 protein from binding”.

B2: LRRC4B mutant: LRRC4B (453-576) with alanine substitutions at positions 488 and 489 of SEQ ID NO: 2 (SEQ ID NO: 16) (protein)
chain: VSAVDPVAAGGTGSGGGGPGGSGGVGGGSGGYTYFAAVTVETLETQPGEEALQPRGTEKEPPGPTTDGVWGGGRPGDAAGPASSSTTAPAPRSSRPTEKAFTVPITDVTENALKDLDDVMKTTK
modifications: human Fc fusion in use
With B2, the “inhibition of FAM19A5 binding to coated full-length LRRC4B ectodomain protein” value in test [5] is “much inferior in their ability to inhibit the interaction”. In addition, the “inhibition … to coated LRRC4C protein” value in test [3] is given as “minimal effect”. Moreover, the “inhibition … to coated LRRC4 protein” value in test [4] is “minimal effect”. The “dissociation of FAM19A5 from full-length LRRC4B protein” value in test [7] was “FAM19A5 protein remained largely bound”.
